In patent US20240352121A1, “LAIR-1 AGONISTIC ANTIBODIES AND METHODS OF USE THEREOF” (NEXTCURE, INC., priority 2023, published 2024):

Assays:
AML patient cells = experiment: Ex vivo depleting assay, AML patient blood leukocytes; format: cell-based, human
Description: Whole blood from AML-diagnosed donors was RBC-depleted using StemCell RBC depletion kit following the manufacturer's instructions. Leukocytes were re-suspended in complete RPMI media containing 3 μg/mL of soluble mAb, then plated in 96-well round-bottom plates for 48 hours at 37° C. Cell death was analyzed by AnnexinV and Fixable Live-Dead staining following the manufacturer's instructions, quantified by flow cytometry. RBC depletion StemCell Ref #18170. Isotype=FC-G1 BioXcell Ref #BE0096. Live-Dead Stain Invitrogen Cat #L34966. AnnexinV-AF647 Biolegend Cat #640943.
Fresh whole blood was RBC-depleted using the EasySep™ RBC Depletion Reagent (StemCell, Vancouver, BC) following the manufacturer's protocol. Alternatively, frozen PBMCs were thawed in pre-warmed cRPMI media. Cell number was determined by VI-Cell XR cell counter. 2e5 cells per well were plated into 96-well plates lacking or containing 50 μg/mL pre-coated human Collagen I (StemCell, Vancouver, BC) in 200 μL of cRPMI containing 10 μg/mL of soluble LAIR-1 mAb or isotype control antibody (NP782 (NextCure, Beltsville, MD) or InVivoMAb recombinant human IgG1 Fc (BioXcell, Lebanon, NH)). Plates were centrifuged at 100×g for 2 minutes, then incubated for 20 hours at 37° C. in a TC incubator. At the end of incubation period, plates were centrifuged at 500×g for 4 min. […]

LAIR-1 = experiment: Ligand (collagen) mediated LAIR-1 signaling blockade in UT-140 reporter cells; format: cell-based, human
Description: FIGS. 24A-24C display h11B3 LAIR-1 mAbs, containing a variable light chain of SEQ ID NO: 16 and a variable heavy chain of SEQ ID NO:27, binds LAIR-1 and blocks its functional signaling triggered by collagen-I in UT-140 reporter cells. Seed 1e4 UT140 reporter cells/100 μl in 96-well flat bottom plate. LAIR1 signaling was induced by 10 μg/ml coated collagen treatment. Blocking of LAIR1 signaling by such h11B3 LAIR-1 mAbs was determined by addition of different concentrations of such h11B3 LAIR-1 mAbs in 100 μL per well. Cultures were maintained for 20 hours, and the GFP was read on flow cytometry.
FIGS. 25A-25B display h11B3 LAIR-1 mAbs, containing a variable light chain of SEQ ID NO: 16 and a variable heavy chain of SEQ ID NO:27, blocks collagen-1 signaling. […] Reporter activation was quantified by flow cytometry. […]
For cell binding assays, 5e4 UT-140 cells or mouse LAIR-1-transfected 293T cells per well were plated in 200 μL PBS in a 96-well round bottom plate, centrifuged for 4 minutes at 500×g for a single wash, and blocked for 10 minutes on ice with flow cytometry buffer (PBS+2% FBS+0.1 mM EDTA) containing 1:50 dilution of TruStain™ Fc block (Biolegend, San Diego, CA). […] Cells were then washed 3 times as previously described and binding was measured by flow cytometry using an Attune NXT flow cytometer. […] GFP expression was measured by flow cytometry using an Attune NXT Flow Cytometer.

B1: LAIR-1 mAb: humanized agonist anti-LAIR-1 mAb, IgG1 backbone; h11B3 VL-2 (SEQ ID NO: 16), h11B3 VH-3 (SEQ ID NO: 27) (antibody, V domains shown)
VH: EVQLVESGGGLVQPGGSLKLSCAASGFTFNTNAMYWVRQAPGKGLEWVGRIRSKSSNYATYYAASVKGRFTISRDDSKNTLYLQMNSLKTEDTAVYYCVRGGSGFFAYWGQGTLVTVSS
VL: DIQMTQSPSSLSASLGDRVTITCKASEDIYIRLAWYQQKPGKAPRLLISTATSLETGVPSRFSGSGSGTDYTFTISSLQPEDIATYYCQQYWSTPYTFGGGTRLEIK
modifications: IgG1 constant regions; Synthetic: h11B3 VH-3; Synthetic: h11B3 VL-2
AML patient cells; 3 μg/mL soluble mAb, 48 hours
  AML cell death: induces AML cell death
AML patient cells; 10 μg/mL, plate-coated collagen
  cell death of total AML patient cells or CD45Low SSCLow blasts: significant cell death
LAIR-1
  collagen binding to LAIR-1: blocks collagen binding
